{"source": "paper PMC7782096", "about": "“BAP1 suppresses prostate cancer progression by deubiquitinating and stabilizing PTEN” (Molecular Oncology, 2020)", "biological_target": "T1, His-tagged BAP1 protein (UniProt Q92560 1-729)", "T1 construct": "BAP1, full length, inserted into pET-28a; also called His-BAP1; source: E. coli expressing system, purified", "T1 sequence (looked up)": "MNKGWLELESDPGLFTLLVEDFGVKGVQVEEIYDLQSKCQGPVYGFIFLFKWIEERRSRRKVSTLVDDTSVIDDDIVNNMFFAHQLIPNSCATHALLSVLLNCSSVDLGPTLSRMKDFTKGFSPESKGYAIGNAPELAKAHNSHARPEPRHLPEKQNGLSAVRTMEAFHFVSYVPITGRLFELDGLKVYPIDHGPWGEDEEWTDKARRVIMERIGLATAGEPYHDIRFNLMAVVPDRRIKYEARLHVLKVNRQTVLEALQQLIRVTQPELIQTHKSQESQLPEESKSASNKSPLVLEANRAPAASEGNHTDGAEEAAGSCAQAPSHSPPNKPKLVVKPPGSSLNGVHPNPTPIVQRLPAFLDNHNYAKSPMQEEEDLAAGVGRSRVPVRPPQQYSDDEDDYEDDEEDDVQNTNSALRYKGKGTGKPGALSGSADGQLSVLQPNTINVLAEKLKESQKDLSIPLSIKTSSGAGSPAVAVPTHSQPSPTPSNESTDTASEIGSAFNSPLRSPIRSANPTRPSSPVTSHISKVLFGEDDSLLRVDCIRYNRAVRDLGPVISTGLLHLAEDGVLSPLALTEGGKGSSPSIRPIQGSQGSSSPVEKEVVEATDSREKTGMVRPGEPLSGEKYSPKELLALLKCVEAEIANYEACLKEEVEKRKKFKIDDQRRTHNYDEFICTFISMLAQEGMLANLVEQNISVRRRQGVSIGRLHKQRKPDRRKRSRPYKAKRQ", "assay": "pull-down; purified GST-PTEN on GST beads incubated with recombinant His-BAP1 purified from E. coli, 4 °C; western blotting", "settings": "both partners purified"}
{"binder": "GST-tagged PTEN recombinant protein (natural protein, PTEN; also called GST-PTEN; source: bacterially expressed (E. coli), purified) not shown", "values": [{"measurement": "binding result", "result": "binds"}]}
